Measurements reported in the supplement of paper PMC9112550, “Optimization of the antimicrobial peptide Bac7 by deep mutational scanning” (BMC Biology, 2022).

Test system: Escherichia coli TOP10
Assay: shrunken log2 fold change of peptide-encoding DNA abundance (4.5 h post-induction vs induction); higher = less antimicrobial activity (less host growth inhibition)
Conditions: time post-induction: 4.5 h; library: site-saturation at positions 5, 18, 19, 20
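Note: peptides expressed intracellularly from a pBAD plasmid library in pooled LB shake-flask culture, induced with 0.3% L-arabinose, DNA abundance read by NGS, three biological replicates, DESeq2 with apeglm shrinkage.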

Sequence	shrunken log2 fold change
RRIRLRPPRLPRPRPRPEANPRP	0.075
RRIRKRPPRLPRPRPRPYINPRP	-0.627
RRIRMRPPRLPRPRPRPTLCPRP	0.122
RRIRCRPPRLPRPRPRPSYPPRP	-0.703
RRIRDRPPRLPRPRPRPLRHPRP	0.358
RRIRYRPPRLPRPRPRPQWLPRP	-0.0323
RRIRMRPPRLPRPRPRPWCMPRP	-0.0453
RRIRLRPPRLPRPRPRPGPYPRP	-0.215
RRIRRRPPRLPRPRPRPLTCPRP	-0.12
RRIRYRPPRLPRPRPRPGIYPRP	-0.288
RRIRWRPPRLPRPRPRPFFAPRP	0.367
RRIRGRPPRLPRPRPRPNFSPRP	0.078
RRIRVRPPRLPRPRPRPNHGPRP	-0.0115
RRIRCRPPRLPRPRPRPATTPRP	0.151
RRIRVRPPRLPRPRPRPWPNPRP	0.179
RRIRARPPRLPRPRPRPDKSPRP	-0.169
RRIRFRPPRLPRPRPRPNFNPRP	-0.554
RRIRCRPPRLPRPRPRPNKHPRP	-0.541
RRIRVRPPRLPRPRPRPCAVPRP	0.218
RRIRVRPPRLPRPRPRPKFYPRP	-0.46
RRIRIRPPRLPRPRPRPLETPRP	-0.0471
RRIRLRPPRLPRPRPRPIPFPRP	-0.0242
RRIRYRPPRLPRPRPRPEKLPRP	-0.034

Sequence	shrunken log2 fold change
RRIRDRPPRLPRPRPRPRLEPRP	0.387
RRIRHRPPRLPRPRPRPNLIPRP	-0.00121
RRIRPRPPRLPRPRPRPLSNPRP	-0.1
RRIRTRPPRLPRPRPRPYQYPRP	-0.546
RRIRDRPPRLPRPRPRPSKQPRP	-0.257
RRIRWRPPRLPRPRPRPDGCPRP	0.0109
RRIRCRPPRLPRPRPRPPLMPRP	0.121
RRIRMRPPRLPRPRPRPFDNPRP	0.0191
RRIRYRPPRLPRPRPRPGYWPRP	-0.154
RRIRLRPPRLPRPRPRPDSKPRP	-0.24
RRIRGRPPRLPRPRPRPHITPRP	-0.0465
RRIRWRPPRLPRPRPRPMHLPRP	-0.317
RRIRPRPPRLPRPRPRPLDAPRP	0.131
RRIRSRPPRLPRPRPRPPWGPRP	0.317
RRIRSRPPRLPRPRPRPDIWPRP	0.00423
RRIRGRPPRLPRPRPRPDFTPRP	0.22
RRIRERPPRLPRPRPRPWTVPRP	0.0377
RRIRQRPPRLPRPRPRPEDGPRP	0.154
RRIRQRPPRLPRPRPRPLADPRP	0.194
RRIRMRPPRLPRPRPRPSMEPRP	0.484
RRIRNRPPRLPRPRPRPTAIPRP	-0.072
RRIRARPPRLPRPRPRPTWAPRP	0.621
RRIRLRPPRLPRPRPRPIIYPRP	-0.196

Sequence	shrunken log2 fold change
RRIRFRPPRLPRPRPRPYHTPRP	-0.0117
RRIRARPPRLPRPRPRPCQNPRP	0.105
RRIRARPPRLPRPRPRPVLAPRP	1.18
RRIRGRPPRLPRPRPRPGFPPRP	0.691
RRIRSRPPRLPRPRPRPGGWPRP	0.705
RRIRIRPPRLPRPRPRPKYIPRP	-0.992
RRIRQRPPRLPRPRPRPIDLPRP	-0.194
RRIRRRPPRLPRPRPRPELVPRP	0.27
RRIRCRPPRLPRPRPRPYLEPRP	-0.208
RRIRSRPPRLPRPRPRPSIMPRP	-0.196
RRIRERPPRLPRPRPRPFTVPRP	-0.00987
RRIRNRPPRLPRPRPRPQLGPRP	-0.124
RRIRTRPPRLPRPRPRPRGTPRP	0.197
RRIRTRPPRLPRPRPRPQKKPRP	0.0215
RRIRWRPPRLPRPRPRPNDLPRP	0.0302
RRIRQRPPRLPRPRPRPTSPPRP	0.218
RRIRFRPPRLPRPRPRPSRQPRP	-0.0117
RRIRDRPPRLPRPRPRPPTRPRP	0.596
RRIRARPPRLPRPRPRPLAKPRP	0.835
RRIRYRPPRLPRPRPRPQRTPRP	-0.335
RRIRRRPPRLPRPRPRPYHLPRP	-0.307
RRIRCRPPRLPRPRPRPLISPRP	-0.3
RRIRTRPPRLPRPRPRPYHHPRP	-0.59

Sequence	shrunken log2 fold change
RRIRVRPPRLPRPRPRPPGNPRP	0.17
RRIRLRPPRLPRPRPRPSDPPRP	-0.0539
RRIRTRPPRLPRPRPRPIEFPRP	0.0274
RRIRNRPPRLPRPRPRPTTFPRP	-0.337
RRIRVRPPRLPRPRPRPKNTPRP	-0.347
RRIRMRPPRLPRPRPRPHHTPRP	-0.263
RRIRERPPRLPRPRPRPHAKPRP	0.0118
RRIRSRPPRLPRPRPRPMCGPRP	-0.145
RRIRYRPPRLPRPRPRPKMSPRP	-0.562
RRIRWRPPRLPRPRPRPANAPRP	0.711
RRIRHRPPRLPRPRPRPEYRPRP	-0.0136
RRIRVRPPRLPRPRPRPLIKPRP	-0.206
RRIRVRPPRLPRPRPRPIFSPRP	-0.628
RRIRKRPPRLPRPRPRPYEEPRP	-0.0817
RRIRNRPPRLPRPRPRPMALPRP	-0.0652
RRIRDRPPRLPRPRPRPETMPRP	0.0179
RRIRCRPPRLPRPRPRPLLPPRP	-0.143
RRIRDRPPRLPRPRPRPNMEPRP	0.0616
RRIRARPPRLPRPRPRPKFQPRP	0.328
RRIRTRPPRLPRPRPRPKKWPRP	-0.0616
RRIRQRPPRLPRPRPRPFFAPRP	0.414
RRIRSRPPRLPRPRPRPTIQPRP	-0.305
